Numbering of substitutions follows the chain as printed. In names and notes the source's numbering stands. Ends that are not written are not given here.

Test [1] has as its system MYC4. Nature of the test: Split-ubiquitin assay, MYC4 as bait. It counts as cell-based, Arabidopsis thaliana. Particulars: yeast, SD-AHLW growth. The method, then: (§1) The rapamycin-compatible yeast strain NMY51 TOR1-1 Δfpr1 ([35]) was transformed according to DUALhunter™ kit instructions (Dualsystems biotech). Briefly, overnight 2×YPAD cultures were diluted to OD600 = 0.2, and incubated at 30°C, 150 RPM for 4–6 h in 2×YPAD, before harvesting the cells by centrifugation at 700 g for 5 min. The cells were washed with H2O, then 0.1 M LiOAc, before resuspending in 0.1 M LiOAc with 15% glycerol. The competent cells were then aliquoted and stored at −80°C until transformation. For double transformation with bait and prey plasmids, competent cells were thawed on ice, and mixed with transformation mix (240 μl 50% PEG-3350, 35 μl 1 M LiOAc and 25 μl 2 mg/ml ssDNA per transformation) and 200 ng of each plasmid, before being exposed to a 42°C heat shock in a water bath for 45 min. The cells were then chilled on ice for a few minutes, sedimented by centrifugation (3000 g, 1 min), resuspended in sterile H2O, plated on SD-LW plates and grown at 30°C for 2–3 days.
(§2) For drop tests, cells from three individual colonies of each bait/prey combination were grown overnight in liquid SD-LW media. Next day, culture densities were normalized to OD600 = 0.05, dilution series (OD600 = 0.05, OD600 = 0.005, OD600 = 0.0005 and OD600 = 0.00005) were spotted on square plates (SD-LW, SD-AHLW and SD-AHLW+Rapa) and grown for 2 days at 30°C before taking pictures.
(§3) To identify interaction sites mediating specific MYB–MYC complex formation, we selected two TFs from each family. These were MYB28 and MYB29 from MYB subgroup 12, and two of their partner bHLH TFs, MYC3 and MYC4. To define the region mediating the interactions we applied a chemically inducible dimerization split-ubiquitin system ([35]). […] This is used as an in-built positive control for correct expression and functionality of the prey fusion protein and thereby reduces the incidence of false negatives.

Test [2] has as its system MYC3. Nature of the test: Split-ubiquitin assay, MYC3 as bait. The test is classed as cell-based, Arabidopsis thaliana. The conditions noted are these: yeast, SD-AHLW growth. How it is done:
as §1, §2, §3

On to “MYB29 (S175-L222): 47-residue fragment of MYB29 (S175-L222) (SKKRCFKRSSSTSKLLNKVAARASSMGTILGASIEGTLISSTPLSSCL; not fully specified; cysteine pairing not given here)”, for which, in test [1], the “interaction with MYC4 (in words)” value was “sufficient for the interaction”.

For the molecule MYB32: MYB TF from subgroup 4, in test [2], the “interaction with MYC3 (in words)” value is given as “did not”. Moreover, the “interaction with MYC4 (in words)” value in test [1] is given as “did not”.

B1: MYB51: MYB TF from subgroup 12, containing a MIM (protein)
chain: MVRTPCCKAELGLKKGAWTPEEDQKLLSYLNRHGEGGWRTLPEKAGLKRCGKSCRLRWANYLRPDIKRGEFTEDEERSIISLHALHGNKWSAIARGLPGRTDNEIKNYWNTHIKKRLIKKGIDPVTHKGITSGTDKSENLPEKQNVNLTTSDHDLDNDKAKKNNKNFGLSSASFLNKVANRFGKRINQSVLSEIIGSGGPLASTSHTTNTTTTSVSVDSESVKSTSSSFAPTSNLLCHGTVATTPVSSNFDVDGNVNLTCSSSTFSDSSVNNPLMYCDNFVGNNNVDDEDTIGFSTFLNDEDFMMLEESCVENTAFMKELTRFLHEDENDVVDVTPVYERQDLFDEIDNYFG
modifications: left off: NubG and FRB (from the vector pFRB), end not stated, kept
notes: MYB TF from subgroup 12, containing a MIM
B1: the “interaction with MYC3 (in words)” value in test [2] is “interacted with both MYC3 and MYC4”. The “interaction with MYC4 (in words)” value in test [1] is “interacted with both MYC3 and MYC4”.

B2: MYB47: R2R3 MYB TF containing 165LLNKLA170 (protein)
chain: MGRTTWFDVDGMKKGEWTAEEDQKLGAYINEHGVCDWRSLPKRAGLQRCGKSCRLRWLNYLKPGIRRGKFTPQEEEEIIQLHAVLGNRWAAMAKKMQNRTDNDIKNHWNSCLKKRLSRKGIDPMTHEPIIKHLTVNTTNADCGNSSTTTSPSTTESSPSSGSSRLLNKLAAGISSRQHSLDRIKYILSNSIIESSDQAKEEEEKEEEEEERDSMMGQKIDGSEGEDIQIWGEEEVRRLMEIDAMDMYEMTSYDAVMYESSHILDHLF
modifications: left off: NubG and FRB (from the vector pFRB), end not stated, kept
notes: R2R3 MYB TF containing 165LLNKLA170
Turning to B2, the “interaction with MYC3 (in words)” value in test [2] is reported as “we could confirm those interactions”. In addition, the “interaction with MYC4 (in words)” value in test [1] is on record as “we could confirm those interactions”.

B3: MYB21: MYB TF from subgroup 19 (protein)
chain: MEKRGGGSSGGSGSSAEAEVRKGPWTMEEDLILINYIANHGDGVWNSLAKSAGLKRTGKSCRLRWLNYLRPDVRRGNITPEEQLIIMELHAKWGNRWSKIAKHLPGRTDNEIKNFWRTRIQKYIKQSDVTTTSSVGSHHSSEINDQAASTSSHNVFCTQDQAMETYSPTPTSYQHTNMEFNYGNYSAAAVTATVDYPVPMTVDDQTGENYWGMDDIWSSMHLLNGN
modifications: left off: NubG and FRB (from the vector pFRB), end not stated, kept
As for B3, the “interaction with MYC3 (in words)” value in test [2] is listed as “not able to reproduce the interaction”. Also, in test [1], the “interaction with MYC4 (in words)” value was “not able to reproduce the interaction”.

B4: L190A: mutated MYB29 (AAs 120-222); MIM sequence - S TS KL ANK VA ARA SS - (protein)
chain: GIDPVTHKPLAYDSNPDEQSQSGSISPKSLPPSSSKNVPEITSSDETPKYDASLSSKKRCFKRSSSTSKLANKVAARASSMGTILGASIEGTLISSTPLSSCL
modifications: left off: NubG and FRB (from the vector pFRB), end not stated, kept
In the case of B4, in test [2], the “interaction with MYC3 (in words)” value was “abolished the interaction”. The “interaction with MYC4 (in words)” value in test [1] is reported as “abolished the interaction”.

B5: N191L: mutated MYB29 (AAs 120-222); MIM sequence - S TS KL LLK VA ARA SS - (protein)
chain: B4 chain with A71L, N72L
modifications: left off: NubG and FRB (from the vector pFRB), end not stated, kept
As to B5, the “interaction with MYC4 (in words)” value in test [1] is given as “weakly interacting”.

B6: N191Q: mutated MYB29 (AAs 120-222); MIM sequence - S TS KL LQK VA ARA SS - (protein)
chain: B4 chain with A71L, N72Q
modifications: left off: NubG and FRB (from the vector pFRB), end not stated, kept
Regarding B6, in test [1], the “interaction with MYC4 (in words)” value is listed as “weakly interacting”.

B7: L190F: mutated MYB29 (AAs 120-222); MIM sequence - S TS KL FNK VA ARA SS - (protein)
chain: B4 chain with A71F
modifications: left off: NubG and FRB (from the vector pFRB), end not stated, kept
With B7, the “interaction with MYC4 (in words)” value in test [1] is “weakly interacting”.

B8: MYB29 non-MYB region (G120-I336): non-MYB region of MYB29 (G120-I336) (protein)
chain: GIDPVTHKPLAYDSNPDEQSQSGSISPKSLPPSSSKNVPEITSSDETPKYDASLSSKKRCFKRSSSTSKLLNKVAARASSMGTILGASIEGTLISSTPLSSCLNDDFSETSQFQMEEFDPFYQSSEHIIDHMKEDISINNSEYDFSQFLEQFSNNEGEEADNTGGGYNQDLLMSDVSSTSVDEDEMMQNITGWSNYLLDHSDFNYDTSQDYDDKNFI
modifications: left off: NubG and FRB (from the vector pFRB), end not stated, kept
As to B8, the “interaction with MYC4 (in words)” value in test [1] is reported as “mediated by the non-MYB region”.

B9: MYB29 DBD (residues M1-H126): DBD of MYB29 (residues M1-H126) (protein)
chain: MSRKPCCVGEGLKKGAWTAEEDKKLISYIHEHGEGGWRDIPQKAGLKRCGKSCRLRWANYLKPDIKRGEFSYEEEQIIIMLHASRGNKWSVIARHLPKRTDNEIKNYWNTHLKKLLIDKGIDPVTH
modifications: left off: NubG and FRB (from the vector pFRB), end not stated, kept
B9: the “interaction with MYC4 (in words)” value in test [1] is given as “neither sufficient, nor necessary for the interaction”.

B10: MYB29 mut: MYB29 with mutations to abolish the MIM: L190K, K192N and A194Y (protein)
chain: MSRKPCCVGEGLKKGAWTAEEDKKLISYIHEHGEGGWRDIPQKAGLKRCGKSCRLRWANYLKPDIKRGEFSYEEEQIIIMLHASRGNKWSVIARHLPKRTDNEIKNYWNTHLKKLLIDKGIDPVTHKPLAYDSNPDEQSQSGSISPKSLPPSSSKNVPEITSSDETPKYDASLSSKKRCFKRSSSTSKLKNNVYARASSMGTILGASIEGTLISSTPLSSCLNDDFSETSQFQMEEFDPFYQSSEHIIDHMKEDISINNSEYDFSQFLEQFSNNEGEEADNTGGGYNQDLLMSDVSSTSVDEDEMMQNITGWSNYLLDHSDFNYDTSQDYDDKNFI
modifications: left off: NubG and FRB (from the vector pFRB), end not stated, kept
notes: MYB29 with mutations to abolish the MIM: L190K, K192N and A194Y
B10: the “interaction with MYC3 (in words)” value in test [2] was “abolished interaction with MYC3 and MYC4”. Besides, the “interaction with MYC4 (in words)” value in test [1] is “abolished interaction with MYC3 and MYC4”.

B11: WT: MYB29 (AAs 120-222); MIM sequence - S TS KL LNK VA ARA SS - (protein)
chain: B10 chain with K190L, N192K, Y194A
modifications: left off: NubG and FRB (from the vector pFRB), end not stated, kept
For the molecule B11, the “interaction with MYC3 (in words)” value in test [2] is “interacted with both MYC3 and MYC4”. Also, the “interaction with MYC4 (in words)” value in test [1] is “interacted with both MYC3 and MYC4”.

B12: MYB113: MYB TF from subgroup 6 (protein)
chain: MGESPKGLRKGTWTTEEDILLRQCIDKYGEGKWHRVPLRTGLNRCRKSCRLRWLNYLKPSIKRGKLCSDEVDLVLRLHKLLGNRWSLIAGRLPGRTANDVKNYWNTHLSKKHDERCCKTKMINKNITSHPTSSAQKIDVLKPRPRSFSDKNSCNDVNILPKVDVVPLHLGLNNNYVCESSITCNKDEQKDKLININLLDGDNMWWESLLEADVLGPEATETAKGVTLPLDFEQIWARFDEETLELN
modifications: left off: NubG and FRB (from the vector pFRB), end not stated, kept
B12: in test [2], the “interaction with MYC3 (in words)” value was “did not”. Besides, the “interaction with MYC4 (in words)” value in test [1] is reported as “did not”.

Source of the values: article PMC6765112, “Specificity of MYB interactions relies on motifs in ordered and disordered contexts” (Nucleic Acids Research, 2019).
